From the DeepSol protein solubility set come the findings set out here.

The data set is described as follows: soluble on expression in E. coli; label from the status in PepcDB or PDB records.
With “MGSDKIHHHHHHMEFYDIVIVGGGPAGLAAAASAKKNKIDKILILERDCELGGILNQCIHNGFGLHTFKEELTGPEYAGRFIKEVKELGIEYRLNTMVMDISTGDESENGSNDKIVTAMNRTDGLFHIAAKTVILAMGCRERARGALNIPGYRPAGIFSAGTAQRLVNIEGYMPGRKVVILGSGDIGLIMARRMTLEGAKVQVVAELMPYSGGLKRNIVQCLDDFNIPLKLSHTVVDIKGRERVEGITLAQVDEHNKPIEGTEEFYECDTLLLSCGLIPENEISKTAGVELNPVTSGPVVNESLETNVPGVFACGNVLHVHDLVDYVSEEATAAGRHAAEYVKNGGDKSCDGKEISITATGGVRYTVPSTINTAQMDDTVTVRFRVGAVYKNCYIAVYLDDKQLQHRKRPVMAPGEMEQVVLQKKQLIETDNPCTITIKIEEA”, the “soluble on expression in E. coli” value is on record as “not soluble”. In the case of “MSLNGITKYVEKVKGLLFSSVQSQKRIEFSNNDEKVMLSNVPLIQQLPELDRGCEVTSLAMMLQYAGVSVDKMKLANEIKKVNFMEDGVRGNPNEGFVGNIYTFSESGYGVYHGPLFQLAKKYLPNKAVDLTGKSIEEIYKSVKAGHPVVMITNATYAPLDEDEFTTWETNSGDVSITYNEHCVVLVGYDKESVYIRDPLDDSLDVKVPREKFEQAWVQMGSQAISYVNKSKEGHHHHHH” it was “soluble”; in that of “MTKKIVLAGGTGFIGQYLQQRFEENGDEVVIISRRAPHVSWDDSEAVREALEGADMLVNLAGKSVNCRYNEQNKKAILQSRIDTTNILGEAVLACERPPKLWLNSSTATIYRHAEDRAMTEANGELGSGFSENVAKAWEEEFFSFQLPNTRQAALRISIVLGGDGGALTPYRYLTKFGLGGKQGSGKQMVSWIHVEDVFRVIRFIEEQEALEGVINCTSPQPVSNKVLTTAIRRAMNVKVGLPATAWMLEIGTFLLRTESELILKSRWVLPERLLQAGFTFQYETIDDALSEILVQSKSASHLLEHHHHHH”, “not soluble”; in that of “MKIGIFTDCYYPQINGVVTSTMNLQKELEKLNHEVYIITTTFPNFKDEDEKHIIRIPSIPFFKWSEFRIGLFLKHTKAYNKVKALNFDIVHTQTEFSMGNFGTFIAKDLNIPCIHTYHTVYEEYTHYISNFGKSPLKKVVRKLSKRYIAHFSGVIAPTEKTRDLLISYGVKNKIYVVPTGINLEKFKKDIPDAETNSLLKSFNIKKDSFKLIFLGRISKEKNIETLINIMPKIVSENNNIQLIIVGDGPDRLELEERVRYLDLQDNVIFTNRIPNDKVPIYYKAADLFISPSKTETQGLTILEAMAAGVPVLVYDDTNIKGLVLHKKTGLLFKENDELLDNIKFALNNKEEIQSYAKEAFKIAEDFSSANFAKKVERIYKELINQ”, “not soluble”.

Consider “MAHHHHHHSLQTGIPALPPIAQPLPVPAPAPVTPPAPTVPVPQEPAPVPQPPMPQPSVPQTPAPQKPVTPRPAPAPSRAPLLIQARANVPALVAGKKTTVPVLKTLTIPAERAAQLRQRGEVSASLQADLDTFLKSLAAPRDARFEQQDDGQWAVVQPNGLKVDAQATRAAVAKVLRDPRGVSANVVVTGQVAPQRTLDFFASRGITTFLATGFTSYYGSSPERVKNIHVGAQNFKDRLFEGDVFSFNKFIGPVSERNGYVPGLVIAGDQTASGVGGGICQVSTTVFRTLYGAGLGIVQRQNHSYQVFYYDPQGLDATIYQPQLDLKFANTTGGPIWFQTEWDDQEATLTITAFGQARDYQVQVDAPKTLKTVAPPKDRLIPDASLPAGQRKQVDWAAPGATIEVTRRFTRGGKTFKQDTLRSVYRPWPNIFRVGTKKEG”, for which the “soluble on expression in E. coli” value is “not soluble”. To “MNAVKIEKGVAQYIEHNLYYYFEYVRDIQRLKKDILFGRANYDENVGGGRGNLPSRPTERRTIELITHRRLERLEQIVHAIQTVYRSLSPEKQKAVQLKYWSGKSYTWEQVAREIGVSVRQLYRWRDQIIYDIAKLLGEVNSNS” belongs “not soluble”. To “EGLPVLAPVTKDTATSLYTIPFHDGASLVLDVAGLLVWSTCEGGQSPAEIACSSPTCLLANAYPAPGCPAPSCGSDRHDKPCTAYPSNPVTGACAAGSLFHTRFAANTTDGNKPVSEVNVRVLAACAPSKLLASLPRGSTGVAGLAGSGLALPSQVASAQKVPNKFLLCLPTGGPGVAIFGGGPLPWPQFTQSMDYTPLVAKGGSPAHYISARSIKVENTRVPISERALATGGVMLSTRLPYVLLRRDVYRPLVDAFTKALAAQPANGAPVARAVKPVAPFELCYDTKTLGNNPGGYWVPNVLLELDGGSDWAMTGKNSMVDVKPGTACVAFVEMKGVDAGDGSAPAVILGGAQMEDFVLDFDMEKKRLGFLRLPHFTGCSSFNFARST” belongs “soluble”. To “SQSAEKFQGSHLLCPGCGHGIIVREVLNAVDGPIVLGNSTGCLEVCSAVYPHTSWDVPWIHIGFENGSTAISGVEAMYKALTNKGRYQGQKPKFVAFGGDGASYDIGLQFISGCMERGHDMTYICLDNENYANTGGQRSGSTPLGASTSTTPAGSVSFGKKEKKKDIVNIMASHGVPYVAQLSPNKWKDMNKKIKTALDTEGPCFINALSPCTTEWKFESNKTIELADMAVDSLMFPLFEIFNGRELKITYRPRNIIPVRDYLGAQKRFKHLFKKENEHIIEELQKDVNERWEYLQRREEAK” belongs “not soluble”; to “MRIEAAELRILELPLKFRFETSFGVQTKRTILLLRLFGEGLEGLGEGVMERLPLYREETVAGARYLLEEVFLPRVLGRDLPNPEALREALAPFRGNPMAKAVLEMAFFDLWAKALGRPLWQVLGGVRQAVEVGVSLGIQPSVEDTLRVVERHLEEGYRRIKLKIKPGWDYEVLKAVREAFPEATLTADANSAYSLANLAQLKRLDELRLDYIEQPLAYDDLLDHAKLQRELSTPICLDESLTGAEKARKAIELGAGRVFNVKPARLGGHGESLRVHALAESAGIPLWMGGMLEAGVGRAHNLHLATLPGFTKPGDVSSASRYWEEDIVEEALEAKDGLMPVPEGVGIGVHLKLPFVERVTLWQRYMSAS”, “soluble”; to “YCTLADLQLAIPQATLTQLTNDVPADYSVAQEPNLAVVEEAVRQAEELVDAHLRGRYVLPLVTVPSVIKDNTVNLARHWLYARRPEGNELPDAVTRTYKAALQILESIRDGKLHIGVPTGEAAPEPGEVRVRARRQLFSASM”, “not soluble”. For “MAPVIRRAKEIDLYCLNSLMYKLHDEHHQQCPDLFKTASEIEEEKSIARYLDDPECMVYVAEMDDVIIGFITGHFCELISTVSKLVMMATIDELYIEKEYRREGVAEQLMMRIEQELKDYGVKEIFVEVWDFNKGALEFYNKQGLNEHIHYLRKPLNRLEHHHHHH”, the “soluble on expression in E. coli” value was “soluble”.

Turning to “MSLPLPKAELHLHIEGTLEPELAFALAARNGVPLPYAHTDELRKAYQFDDLQSFLNLYYELMAVLRTEQDFEDLANAYLPRAAAQGVRHAEIFFDPQAHIARGVAMGTVVEGLWRALGRSTENHGVSTQLIMCFLRDESAESALETLEAAKPYLDRIIGIGLDSAEVGHPPAKFREVYEAAAALGLRRVAHAGEEGPPEYITEALDVLGVERIDHGLRCMEDDALVERLVRERVPLTLCPLSNVRLRAVDVLAEHPLPAMLDAGLLCTVNSDDPAYFGGYVADNFHAVRDALGLDQERMRELARNSFVASFLEHDEERRARYLAEVEAYDFPGEGHHHHHH”, the “soluble on expression in E. coli” value was “soluble”. In the case of “MDNVVDRHVFYISDGTAITAEVLGHAVMSQFPVTISSITLPFVENESRARAVKDQIDAIYQQTGVRPLVFYSIVLPEIRAIILQSEGFCQDIVQALVAPLQQEMKLDPTPIAHRTHGLNPGNLNKYDARIAAIDYTLAHDDGISLRNLDQAQVILLGVSRCGKTPTSLYLAMQFGIRAANYPFIADDMDNLTLPTSLKPLQHKLFGLTIDPERLAAIREERRENSRYASLRQCRMEVAEVEALYRKNQIPCLNSTNYSVEEIATKILDIMGLNRRMYLEHHHHHH” it was “soluble”; in that of “MAHHHHHHMGTLEAQTQGPGSMLKSVGVILVLSSPSGCGKTTVANKLLEKQKNNIVKSVSVTTRAARKGEKEGKDYYFVDREEFLRLCSNGEIIEHAEVFGNFYGVPRKNLEDNVDKGVSTLLVIDWQGAFKFMEMMREHVVSIFIMPPSMEELRRRLCGRRADDSEVVEARLKGAAFEISHCEAYDYVIVNEDIEETADRISNILRAEQMKTCRQVGLRELLESRFPIED”, “soluble”. To “MGSDKIHHHHHHMRCSPCRMQQAHTPPHSAKSIKHDVKRRIILDAARRMFAHDGAGSVSMRNLAREVGCSAAVLYRYFGSRESILWELRCEGIVLLNDALMGAADAADPLLRLQQLGRAYVSFGIDNLEYYELMFRTPFYEFDAGSLPDGLPDDALVLLHSTAAECLELGYFAGSDVTTVVSSMWSLVHGLVSLILNGRAPLMMGALDTHAMIDRVPDFIAGLARAARGGI” belongs “not soluble”; to “DVTDIKVKEAEIVSKSVAIREIHHRVKNNLQSVVSLLRIQGRRSTSVEAQKVLNESVSRILAIAATHELLSKQMEDGINLYMVIEAVAYNIERCCNDCPQVAVRMDI”, “not soluble”; to “MSKHKVSPATIAKNKKALHDYTILEKFEAGIVLQGWEVKSIRAGKVQMVDSHVHIKHGEAWLFNCLITPLLSASTHVVADAAATRKLLLNRREINKIMGRIEQKGFTCIPLSMYWKGPRVKVEIALAQGKKVHDKRQAQKDKDWAREKDRLFKKAYK”, “not soluble”. In the case of “MGSDKIHHHHHHMKLSYVTDSLGHLPFEDMLNFAAKLGIDTLEMTTGGWSPAPHLNLDELLQSSEKRKEFSQALEKRNMTLCALNCSGNPLDPGELGKSHRDITDKTMELAGLLGVKKVIMMSGLPAGGPDDKVPNWITYTVSWPPVLKDILNYQWEDVAIPYWKKLVKKAEACGVGKIALENFSSQLVYNPETLFRLRNAVGPMVGLNLDPSHLLWMGADPIIAARELGSAIHHVHGKDVRIERYLSAVNGLLETKEVTDPANRAWNYVAVGCGQDLQWWKEFFSVVKMMGYEGEVSLEMEDLTMSPEAGIRTSVEALKQTISQ” it was “not soluble”; in that of “SIHSMDKPIESKEGNVSVGKFKLSDSSINNPEEIISVPSSTTEIEKVEMKPGRGEGLNPELLPASVSELLIPSPFQPQIPDGNNSSVEFHPSKVVLIGTAHVSEKSVNEVRSAIRNLKPDIVAVELCRARYDSLKGNVPETNQVPIKEILTEGKVYYYLVHWLLAYVQKKIGEDMGVKPGSEMISAIEEAEASGAKIALIDRDIQVTLQRFWGRMKFTEKIKMLGSLIGGLIGIGKGAEIDIDQITQQDVVTALVSELREFAPTAAETLIDERDAYLAGSILRTAAGGNKTIVAVIGAGHKPGVINYLENPKSLPPLNSLMQIPKKR”, “not soluble”.

On to “MAHHHHHHMLRCAPSKLFRATPLLRVWAAEEDDASAPRTTFRNVRPGRLLRLWRQMRHRAWMLYAWDEEWVSPMQEGYLHQQRLEQVCFAPLSAYGVVPGSYCDPLLYNTKSTSPFRWHVANVQGDIVGHWYMDADELFRIEDWQPREPDDPLEMFPRPPPMLLRWDESVDEHGNRAFRYRYHYDMMGPTGKWEAYPRCPFSHLYHGGPDQHGRAEGYGFQQGHLLRCDEAEEEVLRRIMEGEDREWEMVKRTEAVQEPWSYPGKIRPRDFEGAVERAKARFRERVRHGKETDPSEDPEYDLVQASEYVEPRDGRRAEWRHLWASGRKPGESLPFHVAFNDGLCFEGNEGGPPAHPAAHYEAAHYEAPYGRYEDADAAAARAAEAAHNAACEQSLSEAMARHRRLFGDTSGAPSGPKAPLPTGCRPMRCAPGPPLPSGRSRSSGARAVGSGPVCGAGARDGESEGEGRGGEAPLGYGARACSWRRREGWV”, for which the “soluble on expression in E. coli” value was “not soluble”.
